Broadly, the Kd is the concentration at which binding is half-saturated. Read a high Kd as lower affinity.

For this assay, the target named is human CD3 epsilon (CD3ε) (human, UniProt P07766 23-207). Description: binding kinetics.
Chain of human CD3 epsilon (CD3ε) (P07766 23-207): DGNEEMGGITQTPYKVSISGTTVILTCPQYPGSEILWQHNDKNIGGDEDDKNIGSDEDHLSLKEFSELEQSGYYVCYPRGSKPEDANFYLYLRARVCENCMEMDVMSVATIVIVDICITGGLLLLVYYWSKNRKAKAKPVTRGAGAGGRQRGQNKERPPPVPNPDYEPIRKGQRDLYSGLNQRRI

B1: 160C9_T4h (bispecific antibody)
light: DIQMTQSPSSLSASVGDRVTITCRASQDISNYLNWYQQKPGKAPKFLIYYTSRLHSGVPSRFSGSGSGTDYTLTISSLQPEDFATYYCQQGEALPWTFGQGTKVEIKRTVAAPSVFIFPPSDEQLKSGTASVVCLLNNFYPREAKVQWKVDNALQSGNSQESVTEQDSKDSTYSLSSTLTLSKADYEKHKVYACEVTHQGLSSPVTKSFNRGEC
heavy 1: QVQLVQSGAEVKKPGASVKVSCKASGYKFTSYWIEWVRQAPGQGLEWIGEILPGSDTTNYNEKFKDRVTFTSDTSTSTVYMELSSLRSEDTAVYYCARDRGNYRAWFGYWGQGTLVTVSSASTKGPSVFPLAPSSKSTSGGTAALGCLVKDYFPEPVTVSWNSGALTSGVHTFPAVLQSSGLYSLSSVVTVPSSSLGTQTYICNVNHKPSNTKVDKKVEPKSCDKTHTCPPCPAPEAAGAPSVFLFPPKPKDTLMISRTPEVTCVVVDVSHEDPEVKFNWYVDGVEVHNAKTKPREEQYNSTYRVVSVLTVLHQDWLNGKEYKCKVSNKALPAPIEKTISKAKGQPREPQVYTLPPSRDELTKNQVSLSCAVKGFYPSDIAVEWESNGQPENNYKTTPPVLDSDGSFFLVSKLTVDKSRWQQGNVFSCSVMHEALHNHYTQKSLSLSPG
heavy 2: not shown
As to B1, the equilibrium dissociation constant (Kd) came out at 12 nM.

The values above are taken from patent US20230374130A1 (published 2023).
